From article PMC10432815

Legend:
[1] = molecular target: medaka Opn5m (medaka)
[2] = molecular target: medaka Opn5m (medaka); remark: listed apart in the source

| relative aequorin luminescence (calcium response) after UV light, 293TΔGQ cells cotransfected with OlOpn5m and medaka Gα: against OlGαq, OlGα11a and OlGα11b [1] | relative aequorin luminescence (calcium response) after UV light, ATR-reconstituted OlOpn5m in 293TΔGQ cells: mGα14 against mGαq [2] | Molecule |
| --- | --- | --- |
| 24 fold | – | medaka Gα14a (natural protein) |
| 24 fold | – | medaka Gα11c (natural protein) |
| – | 27 fold | mouse Gα14 (natural protein) MAGCCCLSAEEKESQRISAEIERQLRRDKKDARRELKLLLLGTGESGKSTFIKQMRIIHGSGYSDEDRKGFTKLVYQNIFTAMQAMIRAMDTLRIQYMCEQNKENAQIIREVEVDKVTALSRDQVAAIKQLWLDPGIQECYDRRREYQLSDSAKYYLTDIERIAMPSFVPTQQDVLRVRVPTTGIIEYPFDLENIIFRMVDVGGQRSERRKWIHCFESVTSIIFLVALSEYDQVLAECDNENRMEESKALFRTIITYPWFLNSSVILFLNKKDLLEEKIMYSHLISYFPEYTGPKQDVKAARDFILKLYQDQNPDKEKVIYSHFTCATDTENIRFVFAAVKDTILQLNLREFNLV |
